Source: paper PMC7693240

Experiments:
[1] = target: H6-Smt3-Int^C(N125A)-CysTag(Alexa647)-Trx-H6; assay: MST
[2] = target: H6-Int^N(C1A)-mCherry

MBP-Int^N(C1A)-H6 (domain or fragment) was tested, and the Kd [1] was 22.4 nM.

“SBP-Int^C(N125A)-eGFP (domain or fragment)” gave a Kd [2] of 9.2 nM, a koff [2] of 0.00082 s⁻¹ and a kon [2] of 85000 M⁻¹ s⁻¹.
